Experimental data from paper PMC9060471, “Oleic acid is an endogenous ligand of TLX/NR2E1 that triggers hippocampal neurogenesis” (Proceedings of the National Academy of Sciences of the …, 2022).

Target: T1, 6xHis-TLX ligand-binding domain (UniProt Q9Y466 155-385)
T1 construct: Construct limits, species and expression host should stand in the SI Appendix (methods); also called TLX LBD; NR2E1; source: purified
Assay: AlphaScreen or HTRF; ALPHA competition experiments in the presence of saturating 18:1ω9
Settings: both partners purified

T1 sequence (Q9Y466 155-385): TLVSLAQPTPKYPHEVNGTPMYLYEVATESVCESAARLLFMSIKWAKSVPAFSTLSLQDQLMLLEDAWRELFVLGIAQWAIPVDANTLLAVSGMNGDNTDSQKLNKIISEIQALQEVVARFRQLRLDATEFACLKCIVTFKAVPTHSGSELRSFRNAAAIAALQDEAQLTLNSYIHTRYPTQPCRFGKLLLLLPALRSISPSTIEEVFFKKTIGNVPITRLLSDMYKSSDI

EC50 with 18:1ω9: 3.3 µM
B1: receptor-interaction domain from NCOA3 (domain or fragment, UniProt Q9Y6Q9 621-821, looked up)
chain: LLQLLTCSSDDRGHSSLTNSPLDSSCKESSVSVTSPSGVSSSTSGGVSSTSNMHGSLLQEKHRILHKLLQNGNSPAEVAKITAEATGKDTSSITSCGDGNVVKQEQLSPKKKENNALLRYLLDRDDPSDALSKELQPQVEGVDNKMSQCTSSTIPSSSQEKDPKIKTETSEEGSGDLDNLDAILGDLTSSDFYNNSISSNG
notes: The methods name an AlphaScreen GST Detection Kit, so a GST fusion may have been used somewhere; see SI Appendix; also called SRC3
